*1 amine or outer side, *2 acyl side, *3 side chain or, on linkers, in order; H or OH if unused. Bridges are numbered along the chain shown (N, C = ends). Where no end group is shown, it is not given here. [ ]: non-standard residue; d: D form. MTXCOO‑CH2CO = methotrexate-acetyl; 4Pal = N[C@@H](Cc1ccncc1)C(=O)O; Suc = O=C(CCC(=O)[*:2])[*:1]; hSer = N[C@@H](CCO)C(=O)O; Nle = CCCC[C@H](N)C(=O)O; Nva = CCC[C@H](N)C(=O)O; Abu = CC[C@H](N)C(=O)O
B1: D-Ser-D-Ser-D-Ser-D-Ser-D-Ser-L-Lys-D-Tyr-D-Tyr-cyclo[L-Cys-L-Phe-D-Trp-L-Lys-L-Thr-L-Cys]-L-Thr-NH2 (peptide)
peptide: [dS][dS][dS][dS][dS]K[dY][dY]CF[dW]KTCT-NH2
modifications: disulfide 9-14; N-terminus assumed
SMILES: C[C@@H](O)[C@H](NC(=O)[C@@H]1CSSC[C@H](NC(=O)[C@@H](Cc2ccc(O)cc2)NC(=O)[C@@H](Cc2ccc(O)cc2)NC(=O)[C@H](CCCCN)NC(=O)[C@@H](CO)NC(=O)[C@@H](CO)NC(=O)[C@@H](CO)NC(=O)[C@@H](CO)NC(=O)[C@H](N)CO)C(=O)N[C@@H](Cc2ccccc2)C(=O)N[C@H](Cc2c[nH]c3ccccc23)C(=O)N[C@@H](CCCCN)C(=O)N[C@@H]([C@@H](C)O)C(=O)N1)C(N)=O
B2: D-Ser-D-Ser-D-Ser-D-Ser-D-Ser-L-hSer-D-Tyr-D-Ser-cyclo[L-Cys-L-Phe-D-Trp-L-Lys-L-Thr-L-Cys]-L-Thr-NH2 (peptide)
peptide: [dS][dS][dS][dS][dS][hSer][dY][dS]CF[dW]KTCT-NH2
modifications: disulfide 9-14; N-terminus assumed
SMILES: C[C@@H](O)[C@H](NC(=O)[C@@H]1CSSC[C@H](NC(=O)[C@@H](CO)NC(=O)[C@@H](Cc2ccc(O)cc2)NC(=O)[C@H](CCO)NC(=O)[C@@H](CO)NC(=O)[C@@H](CO)NC(=O)[C@@H](CO)NC(=O)[C@@H](CO)NC(=O)[C@H](N)CO)C(=O)N[C@@H](Cc2ccccc2)C(=O)N[C@H](Cc2c[nH]c3ccccc23)C(=O)N[C@@H](CCCCN)C(=O)N[C@@H]([C@@H](C)O)C(=O)N1)C(N)=O
B3: D-Ser-D-Ser-D-Ser-D-Ser-D-Ser-L-Thr-D-Tyr-D-Ser-cyclo[L-Cys-L-Phe-D-Trp-L-Lys-L-Thr-L-Cys]-L-Thr-NH2 (peptide)
peptide: [dS][dS][dS][dS][dS]T[dY][dS]CF[dW]KTCT-NH2
modifications: disulfide 9-14; N-terminus assumed
SMILES: C[C@@H](O)[C@H](NC(=O)[C@@H]1CSSC[C@H](NC(=O)[C@@H](CO)NC(=O)[C@@H](Cc2ccc(O)cc2)NC(=O)[C@@H](NC(=O)[C@@H](CO)NC(=O)[C@@H](CO)NC(=O)[C@@H](CO)NC(=O)[C@@H](CO)NC(=O)[C@H](N)CO)[C@@H](C)O)C(=O)N[C@@H](Cc2ccccc2)C(=O)N[C@H](Cc2c[nH]c3ccccc23)C(=O)N[C@@H](CCCCN)C(=O)N[C@@H]([C@@H](C)O)C(=O)N1)C(N)=O
B4: D-Ser-D-Ser-D-Ser-D-Ser-D-Ser-D-Ser-D-Ser-D-Ser-D-Ser-D-Ser-L-Lys-D-Tyr-D-Tyr-cyclo[L-Cys-L-Phe-D-Trp-L-Lys-L-Thr-L-Cys]-L-Thr-NH2 (peptide)
peptide: [dS][dS][dS][dS][dS][dS][dS][dS][dS][dS]K[dY][dY]CF[dW]KTCT-NH2
modifications: disulfide 14-19; N-terminus assumed
SMILES: C[C@@H](O)[C@H](NC(=O)[C@@H]1CSSC[C@H](NC(=O)[C@@H](Cc2ccc(O)cc2)NC(=O)[C@@H](Cc2ccc(O)cc2)NC(=O)[C@H](CCCCN)NC(=O)[C@@H](CO)NC(=O)[C@@H](CO)NC(=O)[C@@H](CO)NC(=O)[C@@H](CO)NC(=O)[C@@H](CO)NC(=O)[C@@H](CO)NC(=O)[C@@H](CO)NC(=O)[C@@H](CO)NC(=O)[C@@H](CO)NC(=O)[C@H](N)CO)C(=O)N[C@@H](Cc2ccccc2)C(=O)N[C@H](Cc2c[nH]c3ccccc23)C(=O)N[C@@H](CCCCN)C(=O)N[C@@H]([C@@H](C)O)C(=O)N1)C(N)=O
B5: Succinate-D-Asp-D-Ser-D-Ser-D-Ser-D-Ser-D-Ser-L-Thr-D-Tyr-D-Ser-cyclo[L-Cys-L-Phe-D-Trp-L-Lys-L-Thr-L-Cys]-L-Thr-NH2 (peptide)
peptide: Suc-[dD][dS][dS][dS][dS][dS]T[dY][dS]CF[dW]KTCT-NH2
modifications: disulfide 10-15
SMILES: C[C@@H](O)[C@H](NC(=O)[C@@H]1CSSC[C@H](NC(=O)[C@@H](CO)NC(=O)[C@@H](Cc2ccc(O)cc2)NC(=O)[C@@H](NC(=O)[C@@H](CO)NC(=O)[C@@H](CO)NC(=O)[C@@H](CO)NC(=O)[C@@H](CO)NC(=O)[C@@H](CO)NC(=O)[C@@H](CC(=O)O)NC(=O)CCC(=O)O)[C@@H](C)O)C(=O)N[C@@H](Cc2ccccc2)C(=O)N[C@H](Cc2c[nH]c3ccccc23)C(=O)N[C@@H](CCCCN)C(=O)N[C@@H]([C@@H](C)O)C(=O)N1)C(N)=O
B6: D-Ser-D-Ser-D-Ser-D-Ser-D-Ser-L-Asp-D-Tyr-D-Ser-cyclo[L-Cys-L-Phe-D-Trp-L-Lys-L-Thr-L-Cys]-L-Thr-NH2 (peptide)
peptide: [dS][dS][dS][dS][dS]D[dY][dS]CF[dW]KTCT-NH2
modifications: disulfide 9-14; N-terminus assumed
SMILES: C[C@@H](O)[C@H](NC(=O)[C@@H]1CSSC[C@H](NC(=O)[C@@H](CO)NC(=O)[C@@H](Cc2ccc(O)cc2)NC(=O)[C@H](CC(=O)O)NC(=O)[C@@H](CO)NC(=O)[C@@H](CO)NC(=O)[C@@H](CO)NC(=O)[C@@H](CO)NC(=O)[C@H](N)CO)C(=O)N[C@@H](Cc2ccccc2)C(=O)N[C@H](Cc2c[nH]c3ccccc23)C(=O)N[C@@H](CCCCN)C(=O)N[C@@H]([C@@H](C)O)C(=O)N1)C(N)=O
B7: D-Ser-D-Ser-D-Ser-D-Gln-D-Ser-D-Ser-D-Ser-D-Gln-D-Ser-D-Ser-D-Ser-D-Gln-L-Norvaline-D-Tyr-D-Ser-cyclo[L-Cys-L-Phe-D-Trp-L-Lys-L-Thr-L-Cys]-L-Thr-NH2 (peptide)
peptide: [dS][dS][dS][dQ][dS][dS][dS][dQ][dS][dS][dS][dQ][Nva][dY][dS]CF[dW]KTCT-NH2
modifications: disulfide 16-21; N-terminus assumed
SMILES: CCC[C@H](NC(=O)[C@@H](CCC(N)=O)NC(=O)[C@@H](CO)NC(=O)[C@@H](CO)NC(=O)[C@@H](CO)NC(=O)[C@@H](CCC(N)=O)NC(=O)[C@@H](CO)NC(=O)[C@@H](CO)NC(=O)[C@@H](CO)NC(=O)[C@@H](CCC(N)=O)NC(=O)[C@@H](CO)NC(=O)[C@@H](CO)NC(=O)[C@H](N)CO)C(=O)N[C@H](Cc1ccc(O)cc1)C(=O)N[C@H](CO)C(=O)N[C@H]1CSSC[C@@H](C(=O)N[C@H](C(N)=O)[C@@H](C)O)NC(=O)[C@H]([C@@H](C)O)NC(=O)[C@H](CCCCN)NC(=O)[C@@H](Cc2c[nH]c3ccccc23)NC(=O)[C@H](Cc2ccccc2)NC1=O

Target: somatostatin subtype 2 rat receptor (rat, UniProt P30680 1-369)
Assay: cell-based or functional assay

Chain of somatostatin subtype 2 rat receptor (P30680 whole entry): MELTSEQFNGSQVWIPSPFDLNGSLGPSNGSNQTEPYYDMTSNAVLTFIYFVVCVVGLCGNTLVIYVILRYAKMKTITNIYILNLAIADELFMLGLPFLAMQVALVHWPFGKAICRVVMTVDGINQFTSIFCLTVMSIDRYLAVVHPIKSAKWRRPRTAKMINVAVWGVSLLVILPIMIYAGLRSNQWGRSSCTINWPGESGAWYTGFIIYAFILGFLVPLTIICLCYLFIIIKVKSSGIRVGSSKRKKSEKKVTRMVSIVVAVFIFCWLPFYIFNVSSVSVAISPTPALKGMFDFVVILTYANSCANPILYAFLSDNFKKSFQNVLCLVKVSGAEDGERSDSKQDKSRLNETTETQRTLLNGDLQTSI

**Q.** With B1 as the binder, how does the “IC50 (nM), inhibition of GH release from primary cultures of rat pituitary cells” value (from here on “IC50 (nM), inhibition of GH release”) read?
**A.** 0.14 nM

**Q.** With B2 as the binder, how does the “IC50 (nM), inhibition of GH release” value read?
**A.** 0.55 nM

**Q.** Which “IC50 (nM), inhibition of GH release” value does the source give for B3 here?
**A.** 0.72 nM

**Q.** Which “IC50 (nM), inhibition of GH release” value does the source give for Succinate-[dS][dS][dS][dS][dS]S[dY][dS]CF[dW]KTCT-NH2 (disulfide 9-14) here?
**A.** 5.6 nM

**Q.** With mercaptoacetate-GG[dD][dS][dS][dS][dS][dS][4Pal][dY][dS]CF[dW]KTCT-NH2 (disulfide 12-17) as the binder, how does the “IC50 (nM), inhibition of GH release” value read?
**A.** 0.97 nM

**Q.** B4 was tested. Which “IC50 (nM), inhibition of GH release” value did it give?
**A.** 0.12 nM

**Q.** B5 was tested. Which “IC50 (nM), inhibition of GH release” value did it give?
**A.** 5.17 nM

**Q.** With succinate-[dD][dS][dS][dS][dS][dS][Nle][dY][dS]CF[dW]KTCT-NH2 (disulfide 10-15) as the binder, how does the “IC50 (nM), inhibition of GH release” value read?
**A.** 0.52 nM

**Q.** With succinate-[dS][dS][dS][dS][dS][Abu][dY][dS]CF[dW]KTCT-NH2 (disulfide 9-14) as the binder, how does the “IC50 (nM), inhibition of GH release” value read?
**A.** 0.61 nM

**Q.** For B6, which “IC50 (nM), inhibition of GH release” value is on record?
**A.** 7.55 nM

**Q.** How did the “IC50 (nM), inhibition of GH release” value turn out when {MTXCOO‑CH2CO}-[dS][dS][dS][dS][dS]K[dY][dY]CF[dW]KTCT-NH2 (cysteine pairing not given here) [MTXCOO-CH2CO-(D-Ser)5-Lys-D-Tyr-D-Tyr-Cys-Phe-D-Trp-Lys-Thr-Cys-Thr-NH2] was run?
**A.** 0.16 nM

**Q.** How did the “IC50 (nM), inhibition of GH release” value turn out when {MTXCOO‑CH2CO}-[dK][dY]K[dY][dK]CF[dW]KTCT-NH2 (cysteine pairing not given here) [MTXCOO-CH2CO-D-Lys-D-Tyr-Lys-D-Tyr-D-Lys-Cys-Phe-D-Trp-Lys-Thr-Cys-Thr-NH2] was run?
**A.** 0.62 nM

**Q.** B7 was tested. Which “IC50 (nM), inhibition of GH release” value did it give?
**A.** 0.93 nM
